The values below come from publication PMC11282289, “Serial X-ray liquidography: multi-dimensional assay framework for exploring biomolecular structural dynamics with microgram quantities” (Nature Communications, 2024).

This series deals with the molecule itself. Description: static small angle X-ray scattering (SAXS); conventional static SAXS, flow cell, no laser (ground state); difference scattering between wild type and monomeric mutant; 25 mM Tris pH 7.5, 100 mM NaCl, 2 mM DTT.

B1: Arabidopsis thaliana UV-B resistance 8 (AtUVR8), wild type, residues 12-381 (domain or fragment, UniProt Q9FN03 12-381, looked up)
chain: APPRKVLIISAGASHSVALLSGDIVCSWGRGEDGQLGHGDAEDRPSPTQLSALDGHQIVSVTCGADHTVAYSQSGMEVYSWGWGDFGRLGHGNSSDLFTPLPIKALHGIRIKQIACGDSHCLAVTMEGEVQSWGRNQNGQLGLGDTEDSLVPQKIQAFEGIRIKMVAAGAEHTAAVTEDGDLYGWGWGRYGNLGLGDRTDRLVPERVTSTGGEKMSMVACGWRHTISVSYSGALYTYGWSKYGQLGHGDLEDHLIPHKLEALSNSFISQISGGWRHTMALTSDGKLYGWGWNKFGQVGVGNNLDQCSPVQVRFPDDQKVVQVSCGWRHTLAVTERNNVFAWGRGTNGQLGIGESVDRNFPKIIEALSVDG
notes: UV-B resistance 8 (UVR8), Arabidopsis thaliana, residues 12-381; Homodimer in the dark (ground) state; also called 2M-T-AtUVR8-His; source: E. coli BL21(DE3) GOLD, purified (IMAC, TEV cleavage, Q-Sepharose, MBPTrap flow-through); not shown: MBP-His-tag, N-terminal, cleaved
Consider B1, for which the binding result was “binds”.
